From doi:10.1101/473132 (bioRxiv, 2018)

Key:
[1] = target: histone H2B, within the H3Kc9me3 mononucleosome (X. laevis, UniProt P02281 2-126); assay: cross-linking
[2] = target: histone H4, within the H3Kc9me3 mononucleosome (X. laevis, UniProt P62799 2-103); assay: cross-linking

binding result [1]: binds
binding result [2]: binds
B1: Swi6 (S. pombe HP1 protein) (natural protein)
chain: MKKGGVRSYRRSSTSKRSVIDDDSEPELPSMTKEAIASHKADSGSSDNEVESDHESKSSSKKLKENAKEEEGGEEEEEDEYVVEKVLKHRMARKGGGYEYLLKWEGYDDPSDNTWSSEADCSGCKQLIEAYWNEHGGRPEPSKRKRTARPKKPEAKEPSPKSRKTDEDKHDKDSNEKIEDVNEKTIKFADKSQEEFNENGPPSGQPNGHIESDNESKSPSQKESNESEDIQIAETPSNVTPKKKPSPEVPKLPDNRELTVKQVENYDSWEDLVSSIDTIERKDDGTLEIYLTWKNGAISHHPSTITNKKCPQKMLQFYESHLTFRENE
